According to US20200317768A1 (published 2020):
Substitutions are numbered along the chain they refer to. Names may count otherwise.

Experiments:
[1] = biological target: T1, cynomolgus monkey FcγRIIa3 extracellular domain, His-tagged (cynomolgus monkey); assay: SPR; KD of SG1 divided by KD of the variant;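 note: relative to parent M103205H795-SG1 carrying the SG1 human heavy chain constant region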
T1 construct: also called cyno FcgRIIa3; cynoFcγRIIa3; not shown: His-tag added to the C-terminus
T1 chain: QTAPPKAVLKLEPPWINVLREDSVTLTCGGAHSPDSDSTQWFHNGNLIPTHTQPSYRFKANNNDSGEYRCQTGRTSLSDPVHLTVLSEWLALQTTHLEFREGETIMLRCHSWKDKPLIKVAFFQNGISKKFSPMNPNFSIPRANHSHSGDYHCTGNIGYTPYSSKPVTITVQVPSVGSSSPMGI
Experimental: (§1) Regarding such interactions, KD values were calculated using the following 1:1 binding model described in BIACORE® T100 Software Handbook BR1006-48 Edition AE.
(§2) The behavior of interacting molecules according to the 1:1 binding model on BIACORE® can be described by Equation 1: Req=C·R max/(KD+C)+RI, wherein, Req is a plot of steady-state binding levels to analyte concentration. C is concentration, RI is bulk refractive index contribution in the sample, and Rmax is analyte binding capacity of the surface. When this equation is rearranged, KD can be expressed as Equation 2: KD=C·Rmax/(Req−RI)−C. KD can be calculated by substituting the values of Rmax, RI, and C into Equation 1 or Equation 2. From the current measurement conditions, RI=0, C=2 μmol/L can be used.
(§3) The resultant variants were expressed using M103202L889-SK1 as light chain and their affinity to human and cynoFcγRs were evaluated (Table 21).

[2] = biological target: T2, cynomolgus monkey FcγRIIb extracellular domain, His-tagged (cynomolgus monkey); assay: SPR; KD of SG1 divided by KD of the variant;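 note: relative to parent M103205H795-SG1 carrying the SG1 human heavy chain constant region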
T2 construct: also called cyno FcgRIIb; cynoFcγRIIb; not shown: His-tag added to the C-terminus
T2 chain: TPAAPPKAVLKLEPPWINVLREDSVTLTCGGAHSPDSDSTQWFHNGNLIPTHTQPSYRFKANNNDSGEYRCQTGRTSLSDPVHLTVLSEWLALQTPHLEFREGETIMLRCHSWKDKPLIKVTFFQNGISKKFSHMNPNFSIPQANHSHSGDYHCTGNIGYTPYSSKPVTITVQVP
Experimental: as §1, §2, §3

[3] = biological target: T3, human FcγRIIb extracellular domain, His-tagged (human, UniProt P31994 43-217); assay: SPR; KD of SG1 divided by KD of the variant;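 note: relative to parent M103205H795-SG1 carrying the SG1 human heavy chain constant region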
T3 construct: also called human FcgRIIb; not shown: His-tag added to the C-terminus
T3 sequence: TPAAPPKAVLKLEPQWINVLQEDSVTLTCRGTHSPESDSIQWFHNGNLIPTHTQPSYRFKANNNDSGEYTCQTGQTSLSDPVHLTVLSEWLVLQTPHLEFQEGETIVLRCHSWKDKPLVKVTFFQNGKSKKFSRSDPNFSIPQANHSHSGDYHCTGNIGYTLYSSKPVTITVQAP
Experimental: as §1, §2, §3

[4] = biological target: T4, human FcγRIIaH extracellular domain, His-tagged (human, UniProt P12318 34-217); assay: SPR; KD of SG1 divided by KD of the variant;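 note: relative to parent M103205H795-SG1 carrying the SG1 human heavy chain constant region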
T4 construct: also called human FcgRIIaH; FcγRIIa (type H); not shown: His-tag added to the C-terminus
T4 sequence: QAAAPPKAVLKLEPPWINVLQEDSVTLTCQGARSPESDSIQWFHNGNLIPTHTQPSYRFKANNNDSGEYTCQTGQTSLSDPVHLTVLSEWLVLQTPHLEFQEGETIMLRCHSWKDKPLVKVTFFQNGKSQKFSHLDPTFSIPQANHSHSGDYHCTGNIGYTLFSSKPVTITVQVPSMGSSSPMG
Experimental: as §1, §2, §3

[5] = biological target: T5, human FcγRIIaH extracellular domain, C-terminal His-tag (human, UniProt P12318 34-217); assay: SPR (BIACORE), antibody captured, FcγR analyte
T5 construct: also called human FcγRIIa (type H); FcgRIIaH; not shown: His-tag added to C-terminus
T5 sequence: T4 sequence
Experimental: (§4) The kinetic analysis of interactions between these antibodies and FcγR was carried out using BIACORE® T200 or BIACORE® 4000 (GE Healthcare). HBS-EP+ (GE Healthcare) was used as the running buffer, and the measurement temperature was set to 25° C. A chip produced by immobilizing Protein A. Protein A/G or mouse anti-human IgG kappa light chain (BD Biosciences) onto a Series S Sensor Chip CM4 or CM5 (GE Healthcare) by the amine-coupling method was used. […] After the measurement, the antibody captured on the chip was washed off by allowing reaction with 10 mM glycine-HCl, pH1.5 and 25 mM NaOH so that the chip was regenerated and used repeatedly. The sensorgrams obtained as measurement results were analyzed by the 1:1 Langmuir binding model using the BIACORE® Evaluation Software to calculate the binding rate constant ka (L/mol/s) and dissociation rate constant kd (l/s), and the dissociation constant KD (mol/L) was calculated from these values. […] Regarding such interactions, KD values were calculated using the following 1:1 binding model described in BIACORE® T100 Software Handbook BR1006-48 Edition AE.
as §2

[6] = biological target: T6, human FcγRIIIaV extracellular domain, C-terminal His-tag (human, UniProt P08637 17-208); assay: SPR (BIACORE), antibody captured, FcγR analyte
T6 construct: also called FcgRIIIaV; not shown: His-tag added to C-terminus
T6 sequence (P08637 17-208 F176V): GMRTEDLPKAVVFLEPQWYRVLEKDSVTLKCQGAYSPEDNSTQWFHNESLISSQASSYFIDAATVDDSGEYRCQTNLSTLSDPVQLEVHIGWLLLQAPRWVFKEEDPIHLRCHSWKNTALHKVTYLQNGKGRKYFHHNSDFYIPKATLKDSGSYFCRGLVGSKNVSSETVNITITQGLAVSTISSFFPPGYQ
Experimental: as §4, §2

[7] = biological target: T7, human FcγRIIaR extracellular domain, C-terminal His-tag (human, UniProt P12318 34-217); assay: SPR (BIACORE), antibody captured, FcγR analyte
T7 construct: also called human FcγRIIa (type R); FcgRIIaR; not shown: His-tag added to C-terminus
T7 chain: T4 sequence with H134R
Experimental: as §4, §2

[8] = biological target: T8, cynomolgus monkey FcγRIIa3 extracellular domain, C-terminal His-tag (cynomolgus monkey); assay: SPR (BIACORE), antibody captured, FcγR analyte
T8 construct: also called cyno FcγRIIa3; cynoFcgRIIa3; not shown: His-tag added to C-terminus
T8 chain: T1 chain
Experimental: as §4, §2

[9] = biological target: T9, cynomolgus monkey FcγRIIa2 extracellular domain, C-terminal His-tag (cynomolgus monkey); assay: SPR (BIACORE), antibody captured, FcγR analyte
T9 construct: also called cyno FcγRIIa2; cynoFcgRIIa2; not shown: His-tag added to C-terminus
T9 chain: T1 chain with I127K, K130N, P133H, R142Q
Experimental: as §4, §2

B1: MS1032LO06-SG1 (M103205H795-SG1/M103202L889-SK1) (antibody, human IgG1, kappa)
heavy: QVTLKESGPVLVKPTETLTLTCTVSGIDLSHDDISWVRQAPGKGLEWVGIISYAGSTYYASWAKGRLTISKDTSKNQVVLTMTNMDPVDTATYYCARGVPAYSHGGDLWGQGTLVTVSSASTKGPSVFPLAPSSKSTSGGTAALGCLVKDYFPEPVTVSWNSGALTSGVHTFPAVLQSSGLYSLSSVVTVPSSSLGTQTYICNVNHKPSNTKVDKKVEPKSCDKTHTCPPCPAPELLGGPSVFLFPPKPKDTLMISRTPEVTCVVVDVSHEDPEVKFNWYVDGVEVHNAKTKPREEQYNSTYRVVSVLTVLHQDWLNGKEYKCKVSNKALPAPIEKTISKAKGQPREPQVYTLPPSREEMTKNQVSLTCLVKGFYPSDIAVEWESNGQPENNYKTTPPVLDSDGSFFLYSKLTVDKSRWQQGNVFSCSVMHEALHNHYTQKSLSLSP
light: DIVMTQSPATLSLSPGERATLSCTSSQSVYHANWLSWFQQKPGQPPKLLIYWASTLAYGVPSRFSGSGSGTDFTLTISSLQPEDAATYYCAGGYGGGRYAFGQGTKVEIKRTVAAPSVFIFPPSDEQLKSGTASVVCLLNNFYPREAKVQWKVDNALQSGNSQESVTEQDSKDSTYSLSSTLTLSKADYEKHKVYACEVTHQGLSSPVTKSFNRGEC
notes: Anti-latent myostatin antibody; Parent of the Fc variants; copies: 2 + 2
In the case of B1, the “KD fold (SG1 = 1)” value [1] is reported as 1 fold, the “KD fold (SG1 = 1)” value [2] is reported as 1 fold and the “KD fold (SG1 = 1)” value [3] is reported as 1 fold. For the same binder, the “KD fold (SG1 = 1)” value [4] was 1 fold.

B2: M103205H795-MY201/M103202L889-SK1 (antibody, human IgG1, kappa)
heavy: QVTLKESGPVLVKPTETLTLTCTVSGIDLSHDDISWVRQAPGKGLEWVGIISYAGSTYYASWAKGRLTISKDTSKNQVVLTMTNMDPVDTATYYCARGVPAYSHGGDLWGQGTLVTVSSASTKGPSVFPLAPSSKSTSGGTAALGCLVKDYFPEPVTVSWNSGALTSGVHTFPAVLQSSGLYSLSSVVTVPSSSLGTQTYICNVNHKPSNTKVDKKVEPKSCDKTHTCPPCPAPELLNGPSVFLFPPKPKDTLMISRTPEVTCVVVDVSDEDPEVKFNWYVDGVEVHNAKTKPREEQYNSTYRVVSVLTVLHQDWLNGKEYKCKVSNKALPKPIEKTISKAKGQPREPQVYTLPPSREEMTKNQVSLTCLVKGFYPSDIAVEWESNGQPENNYKTTPPVLDSDGSFFLYSKLTVDKSRWQQGNVFSCSVMHEALHNHYTQKSLSLSP
light: B1 light
notes: Fc variant G236N/H268D/A330K (EU numbering) of SG1; also called MS1032LO06-MY201; copies: 2 + 2
For B2, the “KD fold (SG1 = 1)” value [1] was 4.4 fold, the “KD fold (SG1 = 1)” value [2] was 4.2 fold and the “KD fold (SG1 = 1)” value [3] was 4.2 fold. The “KD fold (SG1 = 1)” value [4] was 0.8 fold.

B3: M103205H795-MY260/M103202L889-SK1 (antibody, human IgG1, kappa)
heavy: B2 heavy with N238M
light: B1 light
notes: copies: 2 + 2
For B3, the “KD fold (SG1 = 1)” value [1] was 1.2 fold, the “KD fold (SG1 = 1)” value [2] was 1.1 fold and the “KD fold (SG1 = 1)” value [3] was 0.8 fold. For the same binder, the “KD fold (SG1 = 1)” value [4] was 0.8 fold.

B4: M103205H795-MY261/M103202L889-SK1 (antibody, human IgG1, kappa)
heavy: B2 heavy with N238H
light: B1 light
notes: copies: 2 + 2
With B4 the “KD fold (SG1 = 1)” value [1] was 3.1 fold, the “KD fold (SG1 = 1)” value [2] was 1.2 fold and the “KD fold (SG1 = 1)” value [3] was 0.9 fold. The “KD fold (SG1 = 1)” value [4] was 2.9 fold.

B5: M103205H795-MY262/M103202L889-SK1 (antibody, human IgG1, kappa)
heavy: B2 heavy with N238V
light: B1 light
notes: copies: 2 + 2
For B5, the “KD fold (SG1 = 1)” value [1] was 2.1 fold, the “KD fold (SG1 = 1)” value [2] was 3.2 fold and the “KD fold (SG1 = 1)” value [3] was 0.8 fold. For the same binder, the “KD fold (SG1 = 1)” value [4] was 4.9 fold.

B6: M103205H795-MY263/M103202L889-SK1 (antibody, human IgG1, kappa)
heavy: B2 heavy with N238Q
light: B1 light
notes: copies: 2 + 2
With B6 the “KD fold (SG1 = 1)” value [1] was 2.3 fold, the “KD fold (SG1 = 1)” value [2] was 1.8 fold and the “KD fold (SG1 = 1)” value [3] was 1.3 fold. For the same binder, the “KD fold (SG1 = 1)” value [4] was 2.2 fold.

B7: M103205H795-MY264/M103202L889-SK1 (antibody, human IgG1, kappa)
heavy: B2 heavy with N238L
light: B1 light
notes: copies: 2 + 2
In the case of B7, the “KD fold (SG1 = 1)” value [1] is reported as 1.1 fold, the “KD fold (SG1 = 1)” value [2] is reported as 0.7 fold and the “KD fold (SG1 = 1)” value [3] is reported as 0.4 fold. For the same binder, the “KD fold (SG1 = 1)” value [4] was 0.5 fold.

B8: M103205H795-MY265/M103202L889-SK1 (antibody, human IgG1, kappa)
heavy: B2 heavy with N238T
light: B1 light
notes: copies: 2 + 2
B8 was tested, and the “KD fold (SG1 = 1)” value [1] was 3.5 fold, the “KD fold (SG1 = 1)” value [2] was 3.1 fold and the “KD fold (SG1 = 1)” value [3] was 2.1 fold. For the same binder, the “KD fold (SG1 = 1)” value [4] was 3.3 fold.

B9: M103205H795-MY267/M103202L889-SK1 (antibody, human IgG1, kappa)
heavy: B2 heavy with N238I
light: B1 light
notes: copies: 2 + 2
For B9, the “KD fold (SG1 = 1)” value [1] was 2.3 fold, the “KD fold (SG1 = 1)” value [2] was 2.1 fold and the “KD fold (SG1 = 1)” value [3] was 0.8 fold. For the same binder, the “KD fold (SG1 = 1)” value [4] was 3.5 fold.

B10: MS_M103205H795-SG1/M103202L889-SK1 (antibody, human IgG1, kappa)
heavy: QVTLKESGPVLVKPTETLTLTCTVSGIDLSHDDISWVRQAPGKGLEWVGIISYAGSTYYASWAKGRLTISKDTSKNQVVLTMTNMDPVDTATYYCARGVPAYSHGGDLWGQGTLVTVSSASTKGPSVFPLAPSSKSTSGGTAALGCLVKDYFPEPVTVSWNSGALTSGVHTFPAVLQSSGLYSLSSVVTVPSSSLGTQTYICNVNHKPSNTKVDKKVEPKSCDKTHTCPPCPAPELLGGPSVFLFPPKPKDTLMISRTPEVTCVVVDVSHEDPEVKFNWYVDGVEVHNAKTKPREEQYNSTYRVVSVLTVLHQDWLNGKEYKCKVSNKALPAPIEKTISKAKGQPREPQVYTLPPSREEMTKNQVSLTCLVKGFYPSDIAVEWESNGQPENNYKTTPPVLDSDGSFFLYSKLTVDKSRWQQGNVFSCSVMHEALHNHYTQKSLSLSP
light: B1 light
notes: Parent antibody with SG1 human heavy chain constant region; also called MS1032LO06-SG1
B10 was tested, and the Kd [5] was 690 nM, the Kd [6] was 810 nM and the Kd [7] was 1100 nM. The Kd [8] was 1700 nM and the Kd [9] was 5100 nM.

B11: M103205H795-MY101 / M103202L889-SK1 (antibody, human IgG1, kappa)
heavy: B2 heavy with D270E, P398M
light: B1 light
notes: CH with G236N/H268E/A330K/P396M against SG1 (EU numbering); also called MS1032LO06-MY101
Work on B11 yielded a Kd [5] of 490 nM, a Kd [6] of 11000 nM and a Kd [7] of 870 nM. For the same binder, the Kd [8] was 3600 nM and the Kd [9] was 1200 nM.

B12: M103205H795-MY201 / M103202L889-SK1 (antibody, human IgG1, kappa)
heavy: B2 heavy
light: B1 light
notes: CH with G236N/H268D/A330K against SG1 (EU numbering); also called MS1032LO06-MY201
For B12, the Kd [5] was 910 nM, the Kd [6] was 24000 nM and the Kd [7] was 1900 nM. It also gave a Kd [8] of 3900 nM and a Kd [9] of 1400 nM.

B13: M103205H795-MY205 / M103202L889-SK1 (antibody, human IgG1, kappa)
heavy: B2 heavy with Q297L
light: B1 light
notes: CH with G236N/H268D/Q295L/A330K against SG1 (EU numbering); also called MS1032LO06-MY205
For B13, the Kd [5] was 470 nM, the Kd [6] was 13000 nM and the Kd [7] was 1300 nM. The Kd [8] was 3000 nM and the Kd [9] was 1100 nM.
